Experiments:
[1] = target: Human SOD1 in sporadic ALS (sALS) spinal cord homogenate (human) (UniProt P00441); assay: cell-based or functional assay
[2] = target: Human SOD1 in sporadic ALS (sALS) spinal cord homogenate (human) (UniProt P00441); assay: immunoprecipitation with antibody-linked magnetic beads; immunoblot of the flow-through of sALS patient 4 spinal cord homogenate

Chain of UniProt P00441 (P00441 2-154 limits assumed): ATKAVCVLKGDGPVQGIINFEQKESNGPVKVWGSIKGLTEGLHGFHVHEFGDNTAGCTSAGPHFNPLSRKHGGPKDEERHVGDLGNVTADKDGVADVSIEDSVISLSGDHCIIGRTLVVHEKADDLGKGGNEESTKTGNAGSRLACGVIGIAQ

Substance | 50% ThT (RFU), SOD1 RT-QuIC after immunodepletion [1] | Lag phase (hours), SOD1 RT-QuIC after immunodepletion [1] | percent SOD1 remaining in flow-through compared to input [2]
Isotype control antibody mIgG2b (ThermoFisher #MA110427) | 32100 RFU | 70.2 h | 75%
Mouse-anti-SOD1 antibody, clone O98B10 (pan-SOD1; BioLegend #850702) | 27300 RFU | 62.7 h | 23%
Isotype control antibody mIgG2a (ThermoFisher #MA110418) | 27600 RFU | 57.6 h | 28%
Anti-human SOD1 antibody C4F6 (misfolded SOD1; MediMabs #MM-0070-2-P) | 21900 RFU | 62.4 h | 21%

Source: patent publication US20260258472A1
